Molecular target: RBD of the S protein of SARS-CoV-2 (SARS-CoV-2, UniProt P0DTC2 330-532)
Test: ELISA on SARS-CoV-2 RBD

| Binder | EC50 [nM] |
| --- | --- |
| Clone #7 (ab7) (other, also called #7 (VH domain)) VH: EVQLVESGGGLVQPGGSLRLSCAASAFDFYDYEMSWVRQAPGKALEWIGEIHHSGSTYYNPSLKGRFTISRDNSKNTLYLQMNSLRAEDTAVYYCAKDVSYHADVWGQGTTVTVSS | 4 |
| Clone #2 (ab2) (Fab, V domains shown, also called #2 (Fab)) VH: QVQLQQSGPGLVKPSQTLSLTCAISGDSVSSNSAAWNWIRQSPSRGLEWLGRTYYRSKWYNDYAVSVKSRITINPDTSKNQFSLQLNSVTPEDTAVYYCAREQQQLVPHYYYYGMDVWGQGTTVTVSS VL: DVVMTQSPSVSGSPGQSVTISCTGTTSDVGGYNYVSWYQQRPGKAPKLMIYEVSKRPSGVPDRFSGSKSGNTASLTVSGLQAEDEADYYCSSYTSSSTLFGTGTKLTVLG | 2 |
| Clone #5 (ab5) (other, also called #5 (VH domain)) VH: KVQLQQWGAGLLKPSETLSLTCAVYGGSFSGYYWSWIRQPPGKGLEWIGEINHSGSTNYNPSLKSRVTISVDTSKNQFSLKLSSVTAADTAVYYCVRLPMIKKSFDIWGPGTLVTVSS | 20 |
| Clone #4 (ab4) (scFv, also called #4 (scFv)) scFv: EVQLVQSGGGLVQPGGSLRLSCAASGFTFSNYAMTWVRQAPGKGLEWVSTIAGSGDNTYYADSVKGRFTISRDNDKNTLYLQMNSLRADDTAVYYCARDRYYTMDVWGQGTLVTVSSGGGGSGGSGSSGGGSQSVVTQPPSASGSPGQSVTISCTGTSSDVGGYNHVSWYQQHPGKAPKLLIYEVSERPSGVPDRFSGSKSDNKASLTIIGLQTEDEADYYCQSYDSSLSGSLFGTGTKLTVLR | 10 |
| Clone #1 (ab1) (Fab, V domains shown, also called #1 (Fab)) VH: EVQLVESGGGLVQPGGSLRLSCAASGFTVSSNYMSWVRQAPGKGLEWVSVIYSGGSTYYADSVKGRFTISRHNSKNTLYLQMNSLRAEDTAVYYCARGYGDYYFDYWGQGTLVTVSS VL: DVVMTQSPATLSLSPGEKATLSCRASQSVSSYLAWYQQKPGQPPKLLIYWASTRESGVPDRFSGSGSGTDFTLTISSLQAEDVAVYYCQQYGSSPLTFGGGTKVEIKR | 20 |
| Clone #9 (ab9) (other, also called #9 (VH domain)) VH: EVQLVESGGGLVQPGGSLRLSCKGSGFTLSDYYIGWVRQAPGKGLEWIGSMYHSGRTYINPSLKSRVTISRDNSKNTLYLQMNSLRAEDTAVYYCARGGITGTTPIDYWGQGTLVTVSS | 60 |
| Clone #8 (ab8) (other, also called #8 (VH domain)) VH: EVQLVESGGGLVQPGGSLRLSCAASGFTFDDYAMSWVRQAPGKGLEWIGRMYNNGRTSYNPSLKSLVTISRDNSKNTLYLQMNSLRAEDTATYYCARDNLGYRPSENLYGMDVWGQGTTVTVSS | 25 |
| Clone #6 (ab6) (other, also called #6 (VH domain)) VH: EVQLVESGGGVVQPGRSLRLSCAASGFTFSSYAMHWVRQAPGKGLEWIGNIYHDGSTFYNPSLKSLVTISRDDSTNTLYLQMNSLRAEDTAIYYCARVWLYGSGYMDVWGKGTLVTVSS | 6 |

From patent US10822379 (UNIVERSITY OF PITTSBURGH OF THE COMMONWEALTH SYSTEM OF …, dated 2020)
